Test results reported in patent publication US9682130B2 (priority 2015, dated 2017).
Like-named read-outs stand apart in the source and are kept apart here.

Legend:
[1] = Jones Dye test for nasolacrimal duct blockage; type: in vivo, NZW rabbit; details: Day 21, all Ranpirnase concentrations
Protocol: The animals were also assayed on day 21 for nasolacrimal duct blockage by performing a Jones Dye test. On Day 21, a drop of sodium fluorescein was placed in each eye and the time to the dye appearing in the ipsilateral nostril was measured.

Adenovirus serotype Ad5 = test: Ad5/NZW rabbit ocular replication model, plaque assay of ocular samples; type: in vivo; details: for Ad5-positive ocular samples, percent, Day 1 / Ad5-positive ocular samples, percent, Day 3 / Ad5-positive ocular samples, percent, Day 4 / Ad5-positive ocular samples, percent, Day 5 / Ad5-positive ocular samples, percent, Day 7 / Ad5-positive ocular samples, percent, Day 11 / Ad5-positive ocular samples, percent, Day 14 / Ad5-positive ocular samples, percent, Total / Ad5-positive ocular samples/total eyes, Day 1 / Ad5-positive ocular samples/total eyes, Day 3 / Ad5-positive ocular samples/total eyes, Day 4 / Ad5-positive ocular samples/total eyes, Day 5 / Ad5-positive ocular samples/total eyes, Day 7 / Ad5-positive ocular samples/total eyes, Day 11 / Ad5-positive ocular samples/total eyes, Day 14 / Ad5-positive ocular samples/total eyes, Total: 8x daily 9 days
Protocol: See, e.g., Romanowski, et al., The In Vitro and In Vivo Evaluation of ddC as a Topical Antiviral for Ocular Adenovirus Infections, Invest. Ophthalmol. Vis. Sci. 50: 5295-5299 (2009), which is hereby incorporated by reference in its entirety.
(§1) To conduct this in vivo assay, 25 NZW rabbit were anesthetized using the general anesthesia ketamine and xylazine and the topical anesthesia proparacaine. Each rabbit was then topically inoculated with 50 μL of Adenovirus serotype Ad5 (3×10^7 pfu/mL) in both eyes after corneal epithelial scarification (12 cross-hatched strokes of a 25 sterile needle). Eyes were closed and gently rubbed for 5 seconds to ensure contact of the virus on all ocular surfaces. […] All topical solutions (37 μL drops) were instilled with an electronic pipette (EDP; Rainin, Oakland, Calif.) set in the multi-dispense mode. Ocular swabbing to recover adenovirus from tear film and corneal and conjunctival surfaces, after topical anesthesia with proparacaine, was performed at least 1 hour after the final dose on days 0, 1, 3, 4, 5, 7, 9, 11, and 14 after inoculation. The ocular samples from each eye was placed individually into tubes containing 1 mL of medium and were frozen at −70° C. pending viral plaque assay.
The ocular samples were assayed for Ad5 titers by performing a plaque reduction assay. Samples were diluted 1:10 and these dilutions were inoculated onto duplicate wells of a 24 well multi-plate containing A549 monolayers. The virus was adsorbed for 3 hours at 37° C. in a 5% CO2-water vapor atmosphere without constant rocking. After adsorption, 1 mL of medium plus 0.5% methylcellulose was added to each well, and the plates were incubated at 37° C. in a 5% CO2-water vapor atmosphere. After 7 days, the cells were stained with 0.5% gentian violet, and the number of plaques counted using a dissecting microscope (25×). The viral titers were then calculated, and will be expressed as plaque-forming units per milliliter (PFU/mL). Data from the study were analyzed using analysis of variance (ANOVA) with Fisher's pair-wise comparisons and X^2 analyses using True Epistat and/or Minitab statistical software. Significance was established at the P≦0.05 confidence level.

MA-104 cells [2] = system: MA-104 cells
[3] = Eye irritation, Draize scale (MMTS), Ad5/NZW rabbit ocular model; type: in vivo; details: for Ocular irritation MMTS score, Day 3 / Ocular irritation MMTS score, Day 9 / Ocular irritation class, Day 3 / Ocular irritation class, Day 9: topical both eyes 8x daily
Protocol: as §1, with “surfaces. Inoculation of both eyes allowed for the reduction in the number of animals needed without jeopardizing statistical validity.” for “surfaces.”
The animals were assayed for eye irritation using a Draize scale for ocular lesions. Classification of eye irritation was evaluated for both eyes of each rabbit on day 3 and day 9 using the maximum mean total score (MMTS; Table 4). See, e.g., Kay and Calandra, Interpretation of Eye Irritation Tests, J. Soc. Cos. Chem. 13: 281-289 (1962), the content of which is hereby incorporated by reference in its entirety. The MMTS score used was as follows: 0.0-0.5, Non-Irritating (N); 0.6-2.5, Practically Non-Irritating (PN); 2.6-15.0, Minimally Irritating (M1); 15.1-25.0, Mildly Irritating (M2); 25.1-50.0, Moderately Irritating (M3); 50.1-80.0, Severely Irritating (S); 80.1-100.0, Extremely Irritating (E); and 100.1-110.0, Maximally Irritating (Mx).

MA-104 cells [4] = test: Toxicity in uninfected wells (CC50); details: for Yield Reduction Assay CC50: yield reduction columns
[5] = 25, 2.5 and 0.25 μM Ranpirnase, Ad5/NZW rabbit ocular model

B1: Ranpirnase (protein, UniProt P22069 1-104, looked up)
Protein P-30: QDWLTFQKKHITNTRDVDCDNIMSTNLFHCKDKNTFIYSRPEPVKAICKGIIASKNVLTTSEFYLSDCNVTSRPCKYKLKKSTNKFCVTCENQAPVHFVGVGSC
notes: amphibian ribonuclease originally isolated from oocytes and/or early embryos of Rana pipiens; pancreatic ribonuclease (RNase A) superfamily, about 12 kD
[1]
  Blocked nasolacrimal ducts, Jones Dye test: no Ranpirnase treated rabbits, regardless of concentration, resulted in blocked nasolacrimal ducts
Adenovirus serotype Ad5; 0.25 μM Ranpirnase (group 1C)
  Ad5-positive ocular samples, percent, Day 1: 100%
  Ad5-positive ocular samples, percent, Day 3: 100%
  Ad5-positive ocular samples, percent, Day 4: 100%
  Ad5-positive ocular samples, percent, Day 5: 100%
  Ad5-positive ocular samples, percent, Day 7: 88%
  Ad5-positive ocular samples, percent, Day 11: 38%
  Ad5-positive ocular samples, percent, Day 14: 0%
  Ad5-positive ocular samples, percent, Total: 76.7%
  Ad5-positive ocular samples/total eyes, Day 1: 10/10
  Ad5-positive ocular samples/total eyes, Day 3: 10/10
  Ad5-positive ocular samples/total eyes, Day 4: 8/8
  Ad5-positive ocular samples/total eyes, Day 5: 8/8
  Ad5-positive ocular samples/total eyes, Day 7: 7/8
  Ad5-positive ocular samples/total eyes, Day 11: 3/8
  Ad5-positive ocular samples/total eyes, Day 14: 0/8
  Ad5-positive ocular samples/total eyes, Total: 46/60
Adenovirus serotype Ad5; 2.5 μM Ranpirnase (group 1B)
  Ad5-positive ocular samples, percent, Day 1: 100%
  Ad5-positive ocular samples, percent, Day 3: 100%
  Ad5-positive ocular samples, percent, Day 4: 100%
  Ad5-positive ocular samples, percent, Day 5: 80%
  Ad5-positive ocular samples, percent, Day 7: 70%
  Ad5-positive ocular samples, percent, Day 11: 0%
  Ad5-positive ocular samples, percent, Day 14: 0%
  Ad5-positive ocular samples, percent, Total: 64.3%
  Ad5-positive ocular samples/total eyes, Day 1: 10/10
  Ad5-positive ocular samples/total eyes, Day 3: 10/10
  Ad5-positive ocular samples/total eyes, Day 4: 10/10
  Ad5-positive ocular samples/total eyes, Day 5: 8/10
  Ad5-positive ocular samples/total eyes, Day 7: 7/10
  Ad5-positive ocular samples/total eyes, Day 11: 0/10
  Ad5-positive ocular samples/total eyes, Day 14: 0/10
  Ad5-positive ocular samples/total eyes, Total: 45/70
Adenovirus serotype Ad5; 25 μM Ranpirnase (group 1A)
  Ad5-positive ocular samples, percent, Day 1: 100%
  Ad5-positive ocular samples, percent, Day 3: 100%
  Ad5-positive ocular samples, percent, Day 4: 100%
  Ad5-positive ocular samples, percent, Day 5: 90%
  Ad5-positive ocular samples, percent, Day 7: 30%
  Ad5-positive ocular samples, percent, Day 11: 0%
  Ad5-positive ocular samples, percent, Day 14: 0%
  Ad5-positive ocular samples, percent, Total: 60%
  Ad5-positive ocular samples/total eyes, Day 1: 10/10
  Ad5-positive ocular samples/total eyes, Day 3: 10/10
  Ad5-positive ocular samples/total eyes, Day 4: 10/10
  Ad5-positive ocular samples/total eyes, Day 5: 9/10
  Ad5-positive ocular samples/total eyes, Day 7: 3/10
  Ad5-positive ocular samples/total eyes, Day 11: 0/10
  Ad5-positive ocular samples/total eyes, Day 14: 0/10
  Ad5-positive ocular samples/total eyes, Total: 42/70
Adenovirus serotype Ad5; [5]
  Antiviral efficacy compared to the Saline (negative) control: dose dependent antiviral efficacy
MA-104 cells [2]
  CPE Reduction Assay CC50: 75 µg/mL
[3]; 0.25 μM Ranpirnase
  Eye irritation compared to saline and Cidofovir controls: no eye irritation as compared to both the saline and Cidofovir controls
[3]; 0.25 μM Ranpirnase (group 1C)
  Ocular irritation MMTS score, Day 3: 7.5
  Ocular irritation MMTS score, Day 9: 22.5
  Ocular irritation class, Day 3: M1 (2.6-15.0, Minimally Irritating (M1))
  Ocular irritation class, Day 9: M2 (15.1-25.0, Mildly Irritating (M2))
[3]; 2.5 μM Ranpirnase (group 1B)
  Ocular irritation MMTS score, Day 3: 14.6
  Ocular irritation MMTS score, Day 9: 60.7
  Ocular irritation class, Day 3: M1 (2.6-15.0, Minimally Irritating (M1))
  Ocular irritation class, Day 9: S (50.1-80.0, Severely Irritating (S))
[3]; 25 μM Ranpirnase (group 1A)
  Ocular irritation MMTS score, Day 3: 22.0
  Ocular irritation MMTS score, Day 9: 85.0
  Ocular irritation class, Day 3: M2 (15.1-25.0, Mildly Irritating (M2))
  Ocular irritation class, Day 9: E (80.1-100.0, Extremely Irritating (E))
[3]; [5]
  Ocular toxicity compared to Saline and CDV controls: dose dependent ocular toxicity
MA-104 cells [4]; Adenovirus 5 section
  Neutral Red Assay CC50: 52 µg/mL
  Yield Reduction Assay CC50: 52 µg/mL
MA-104 cells [4]; Adenovirus 8 section, CPE scoring
  CPE Reduction Assay CC50: 59 µg/mL
MA-104 cells [4]; Adenovirus 8 section
  Neutral Red Assay CC50: 44 µg/mL
  Yield Reduction Assay CC50: 59 µg/mL
